From article PMC10397247

Assays:
[1] = target: T1, AP8-AA; test: two-hybrid library CCmax; settings: mean of both orientations;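 note: natural log of median RNA to DNA barcode read ratio; higher means stronger binding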
T1 chain: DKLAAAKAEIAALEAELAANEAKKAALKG

[2] = target: T2, P8-AA; test: two-hybrid library CCmax; settings: mean of both orientations;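 note: natural log of median RNA to DNA barcode read ratio; higher means stronger binding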
T2 chain: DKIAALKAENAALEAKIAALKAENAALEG

[3] = target: T3, P4-AA; test: two-hybrid library CCmax; settings: mean of both orientations;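 note: natural log of median RNA to DNA barcode read ratio; higher means stronger binding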
T3 chain: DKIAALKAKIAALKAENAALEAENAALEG

[4] = target: T4, P10-AA; test: two-hybrid library CCmax; settings: mean of both orientations;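 note: natural log of median RNA to DNA barcode read ratio; higher means stronger binding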
T4 chain: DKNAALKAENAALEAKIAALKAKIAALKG

[5] = target: T5, P9-AA; test: two-hybrid library CCmax; settings: mean of both orientations;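 note: natural log of median RNA to DNA barcode read ratio; higher means stronger binding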
T5 chain: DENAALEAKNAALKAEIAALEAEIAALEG

[6] = target: GCN2_T; test: two-hybrid library CCmax;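 note: natural log of median RNA to DNA barcode read ratio; higher means stronger binding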
[7] = target: T6, P2-AA; test: two-hybrid library CCmax; settings: mean of both orientations
T6 chain: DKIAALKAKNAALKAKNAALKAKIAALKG

[8] = target: T7, P1-AA; test: two-hybrid library CCmax; settings: mean of both orientations
T7 chain: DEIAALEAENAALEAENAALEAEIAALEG

[9] = target: T8, P7-AA; test: two-hybrid library CCmax; settings: mean of both orientations
T8 chain: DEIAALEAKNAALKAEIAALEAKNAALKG

[10] = target: T9, P11-AA; test: two-hybrid library CCmax; settings: mean of both orientations
T9 chain: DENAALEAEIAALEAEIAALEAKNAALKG

[11] = target: T10, AP7-AA; test: two-hybrid library CCmax
T10 chain: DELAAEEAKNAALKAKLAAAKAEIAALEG

[12] = target: T11, P3-AA; test: two-hybrid library CCmax; settings: mean of both orientations
T11 chain: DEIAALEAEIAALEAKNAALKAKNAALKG

[13] = target: T12, P12-AA; test: two-hybrid library CCmax; settings: mean of both orientations
T12 chain: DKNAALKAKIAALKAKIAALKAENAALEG

[14] = target: T13, 4H3817-bN; test: two-hybrid library CCNG1
T13 chain: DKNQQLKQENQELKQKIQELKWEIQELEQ

[15] = target: T14, 4H3858-bN; test: two-hybrid library CCNG1
T14 chain: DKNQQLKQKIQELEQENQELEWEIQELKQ

[16] = target: T15, 4H570-bN; test: two-hybrid library CCNG1
T15 chain: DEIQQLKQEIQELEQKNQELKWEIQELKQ

[17] = target: T16, 4H619-bN; test: two-hybrid library CCNG1
T16 chain: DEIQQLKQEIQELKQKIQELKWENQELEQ

[18] = target: T17, 4H584-bN; test: two-hybrid library CCNG1
T17 chain: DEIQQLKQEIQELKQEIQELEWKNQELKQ

[19] = target: T18, 4H850-bN; test: two-hybrid library CCNG1
T18 chain: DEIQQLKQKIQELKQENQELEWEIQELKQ

[20] = target: T19, 4H906-bN; test: two-hybrid library CCNG1
T19 chain: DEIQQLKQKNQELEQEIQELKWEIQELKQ

[21] = target: T20, 4H3974-bN; test: two-hybrid library CCNG1
T20 chain: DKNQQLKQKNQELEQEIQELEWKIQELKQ

[22] = target: T21, 4H3277-bH; test: two-hybrid library CCNG1
T21 chain: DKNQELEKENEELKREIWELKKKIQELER

[23] = target: T22, 4H477-bH; test: two-hybrid library CCNG1
T22 chain: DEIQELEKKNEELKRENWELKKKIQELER

[24] = target: T23, 4H348-bH; test: two-hybrid library CCNG1
T23 chain: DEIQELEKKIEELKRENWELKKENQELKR

[25] = target: T24, 4H319-bH; test: two-hybrid library CCNG1
T24 chain: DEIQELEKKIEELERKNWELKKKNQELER

[26] = target: T25, 4H3057-bH; test: two-hybrid library CCNG1
T25 chain: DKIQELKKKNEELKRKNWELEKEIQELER

[27] = target: T26, 4H492-bH; test: two-hybrid library CCNG1
T26 chain: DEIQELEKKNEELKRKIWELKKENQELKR

[28] = target: T27, 4H40-bH; test: two-hybrid library CCNG1
T27 chain: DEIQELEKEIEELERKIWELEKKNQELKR

[29] = target: T28, 4H741-bH; test: two-hybrid library CCNG1
T28 chain: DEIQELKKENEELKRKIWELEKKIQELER

[30] = target: T29, 4H3629-AA; test: two-hybrid library CCmax; settings: mean of both orientations
T29 chain: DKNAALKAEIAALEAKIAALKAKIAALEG

[31] = target: T30, 4H3619-AA; test: two-hybrid library CCmax; settings: mean of both orientations
T30 chain: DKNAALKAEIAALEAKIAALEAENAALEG

[32] = target: T31, 4H2961-AA; test: two-hybrid library CCmax; settings: mean of both orientations
T31 chain: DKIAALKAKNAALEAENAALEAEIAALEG

[33] = target: T32, 4H3915-AA; test: two-hybrid library CCmax; settings: mean of both orientations
T32 chain: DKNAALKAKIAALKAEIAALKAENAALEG

[34] = target: T33, 4H2760-AA; test: two-hybrid library CCmax
T33 chain: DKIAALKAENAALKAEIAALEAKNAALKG

[35] = target: T34, 4H324-AA; test: two-hybrid library CCmax; settings: mean of both orientations
T34 chain: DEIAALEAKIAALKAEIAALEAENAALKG

[36] = target: T35, 4H63-AA; test: two-hybrid library CCmax; settings: mean of both orientations
T35 chain: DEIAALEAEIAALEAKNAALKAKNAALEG

[37] = target: T36, 4H3094-AA; test: two-hybrid library CCmax; settings: mean of both orientations
T36 chain: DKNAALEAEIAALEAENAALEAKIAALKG

[38] = target: T37, 4H446-AA; test: two-hybrid library CCmax; settings: mean of both orientations
T37 chain: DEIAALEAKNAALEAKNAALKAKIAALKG

[39] = target: T38, 4H380-AA; test: two-hybrid library CCmax; settings: mean of both orientations
T38 chain: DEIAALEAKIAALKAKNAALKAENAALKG

[40] = target: T39, 4H3449-AA; test: two-hybrid library CCmax; settings: mean of both orientations
T39 chain: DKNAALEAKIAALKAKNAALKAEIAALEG

[41] = target: T40, 4H3777-AA; test: two-hybrid library CCmax; settings: mean of both orientations
T40 chain: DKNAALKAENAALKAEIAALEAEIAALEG

[42] = target: T41, 4H2903-AA; test: two-hybrid library CCmax; settings: mean of both orientations
T41 chain: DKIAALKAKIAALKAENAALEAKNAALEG

[43] = target: T42, 4H2774-AA; test: two-hybrid library CCmax; settings: mean of both orientations
T42 chain: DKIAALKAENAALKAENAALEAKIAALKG

[44] = target: T43, 4H432-AA; test: two-hybrid library CCmax; settings: mean of both orientations
T43 chain: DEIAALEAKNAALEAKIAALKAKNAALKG

[45] = target: T44, 4H341-AA; test: two-hybrid library CCmax; settings: mean of both orientations
T44 chain: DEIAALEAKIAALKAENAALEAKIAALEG

[46] = target: T45, 4H3049-AA; test: two-hybrid library CCmax; settings: mean of both orientations
T45 chain: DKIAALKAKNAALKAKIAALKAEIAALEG

[47] = target: T46, 4H2947-AA; test: two-hybrid library CCmax; settings: mean of both orientations
T46 chain: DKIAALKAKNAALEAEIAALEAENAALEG

[48] = target: T47, 4H3974-AA; test: two-hybrid library CCmax; settings: mean of both orientations
T47 chain: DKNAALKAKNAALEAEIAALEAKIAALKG

Question: How did the interaction score [1] turn out when DELAAEEAKNAALKAKLAAAKAEIAALEG [AP7-AA] was run?
Answer: Its interaction score is -2.81.

Question: What about the interaction score [2] of the same binder?
Answer: Its interaction score is -0.66.

Question: What about the interaction score [3] of the same binder?
Answer: Its interaction score is -1.42.

Question: What about the interaction score [4] of the same binder?
Answer: Its interaction score is -0.0128.

Question: What about the interaction score [5] of the same binder?
Answer: The interaction score was -2.24.

Question: What about the interaction score [6] of the same binder?
Answer: The interaction score was -2.13.

Question: What about the interaction score [7] of the same binder?
Answer: Its interaction score is -1.94.

Question: And the interaction score [8]?
Answer: Its interaction score is -1.52.

Question: What about the interaction score [9] of the same binder?
Answer: The interaction score was -2.09.

Question: What about the interaction score [10] of the same binder?
Answer: The interaction score was -0.965.

Question: And the interaction score [11]?
Answer: Its interaction score is -1.7.

Question: And the interaction score [12]?
Answer: Its interaction score is -1.88.

Question: What about the interaction score [13] of the same binder?
Answer: The interaction score was -1.62.

Question: For DKNQQLKQENQELKQKIQELKWEIQELEQ [4H3817-bN], which interaction score [14] is on record?
Answer: Its interaction score is -0.754.

Question: And the interaction score [15]?
Answer: Its interaction score is -0.555.

Question: And the interaction score [16]?
Answer: Its interaction score is -1.92.

Question: And the interaction score [17]?
Answer: Its interaction score is -0.743.

Question: And the interaction score [18]?
Answer: Its interaction score is -2.15.

Question: What about the interaction score [19] of the same binder?
Answer: The interaction score was -0.947.

Question: What about the interaction score [20] of the same binder?
Answer: Its interaction score is -1.83.

Question: What about the interaction score [21] of the same binder?
Answer: Its interaction score is -0.487.

Question: Which results are given for DKIQELKKKNEELKRKNWELEKEIQELER [4H3057-bH]?
Answer: interaction score [22]: -1.01; interaction score [23]: -1.13; interaction score [24]: -0.361; interaction score [25]: -1.81; interaction score [26]: -0.611; interaction score [27]: -1.13; interaction score [28]: -1.77; interaction score [29]: -1.52

Question: DKIAALKAENAALKAEIAALEAKNAALKG [4H2760-AA] was tested. Which interaction score [30] did it give?
Answer: Its interaction score is -1.14.

Question: What about the interaction score [31] of the same binder?
Answer: Its interaction score is -1.77.

Question: What about the interaction score [32] of the same binder?
Answer: The interaction score was -1.97.

Question: What about the interaction score [33] of the same binder?
Answer: The interaction score was -1.44.

Question: What about the interaction score [34] of the same binder?
Answer: The interaction score was 0.876.

Question: And the interaction score [35]?
Answer: Its interaction score is -1.09.

Question: And the interaction score [36]?
Answer: Its interaction score is -1.64.

Question: And the interaction score [37]?
Answer: Its interaction score is 2.17.

Question: What about the interaction score [38] of the same binder?
Answer: The interaction score was -1.49.

Question: And the interaction score [39]?
Answer: The interaction score was -1.48.

Question: What about the interaction score [40] of the same binder?
Answer: Its interaction score is -1.27.

Question: What about the interaction score [41] of the same binder?
Answer: Its interaction score is -0.779.

Question: And the interaction score [42]?
Answer: The interaction score was -1.32.

Question: And the interaction score [43]?
Answer: The interaction score was -1.29.

Question: And the interaction score [44]?
Answer: The interaction score was -0.454.

Question: What about the interaction score [45] of the same binder?
Answer: Its interaction score is -0.788.

Question: And the interaction score [46]?
Answer: Its interaction score is 1.62.

Question: And the interaction score [47]?
Answer: Its interaction score is 0.202.

Question: And the interaction score [48]?
Answer: Its interaction score is -1.69.
